US20100316634A1 (published 2010)

Tests used:
[1] = molecular target: T1, recombinant human interleukin 5 (IL-5) (human, UniProt P05113 20-134, 125I label (Bolton-Hunter reagent) in the receptor binding inhibition and colony lift assays); experiment: receptor binding inhibition, 125I-IL-5 on Drosophila membranes with the IL-5R alpha chain
T1 construct: also called human IL-5; hIL-5
Method: Membrane extracts of Drosophila S2 cells expressing the […] of the human IL-5 Receptor (IL-5R) were used to measure the effect of antibody on IL-5 binding to receptor. To prepare the membranes, 10⁹ cells were pelleted at 1000×g at 4° C. for 10 min. The cell pellet was frozen in a dry ice/ethanol bath for 15 min. The pellet was thawed, resuspended in 10 ml PBS at 4° C. and pelleted at 1000×g for 10 min. The cell pellet was washed 2× in PBS and resuspended in 13.5 ml Hypotonic buffer (10 mM Tris pH 7.5, 3 mM MgCl₂, 1 mM dithiothreitol, 1 mM phenylmethylsulfonyl fluoride, 1 uM leupeptin, 1 uM pepstatin A) and incubated on ice for 5 min. The cell suspension was homogenized in a 15 ml Dounce homogenizer and brought to a final concentration of 0.25 M sucrose with a solution of 2.5 M sucrose. Cell debris was removed by a 15 min centrifugation at 1000×g. Cell membranes were pelleted at 100,000×g at 4° C. for 90 min and resuspended in 50 ml of 10 mM Tris pH 7.5, 3 mM MgCl₂, 250 mM sucrose, and stored at −70° C.
Assays with Drosophila membranes containing receptor were performed in MultiscreenGV plates (Millipore Corp., Bedford, Mass.) using Drosophila tissue culture medium M3 (Lindquist et al., Drosophila Inf. Serv., 58: 163 (1982)) containing 25 mM HEPES buffer pH 7.2 and 0.1% BSA (Binding Buffer). Wells were pre-blocked with 0.1 ml binding buffer. […] Filters were dried and counted.

[2] = molecular target: T1, recombinant human interleukin 5 (IL-5); experiment: optical biosensor

- IC50 [1]: ~7.5 µg/mL
- Kd [2]: ~0.09 nM
B1: recombinant Fab of mAb 2B6 with C-terminal hexa-His on the heavy chain (Fab, V domains shown)
VH: QVQLKESGPGLVAPSQSLSITCTVSGFSLTSYSVHWVRQPPGKGLEWLGVIWASGGTDYNSALMSRLSISKDNSKSQVFLKLNSLQTDDTAMYYCARDPPSSLLRLDYWGQGTTLTVSS
VL: DIVMTQSPSSLSVSAGEKVTMSCKSSQSLLNSGNQKNYLAWYQQKPGQPPKLLIYGASTRESGVPDRFTGSGSGTDFTLSISSVQAEDLAVYYCQNVHSFPFTFGSGTELEIK
notes: Expressed in E. coli from pMKFabGene3H after removal of gene III; N-terminal residues may be set by the PCR primers; also called Fab fragment from 2B6; 2B6 Fab; not shown: murine gamma 1 constant part of the Fd (CH1 to hinge); murine kappa constant region
